pKd: −log10 of the molar value.
Key:
HLA-A*03:01 = test: IEDB peptide-MHC binding, purified MHC/competitive/fluorescence; filed as Kd, often an IC50 or EC50 that approximates it; ≥ and ≤ were set here for values at or beyond the usual limits of such assays
HLA-B*58:01 = test: as above; conditions: source organism: Yersinia pestis Nepal516
HLA-B*35:01 = test: as above
HLA-A*01:01 = test: as above
HLA-A*02:01 = test: as above
HLA-B*15:01 = test: as above
HLA-A*02:03 = test: as above
HLA-B*51:01 = test: as above; conditions: source organism: Giardia lamblia ATCC 50803
HLA-B*27:03 = test: as above
HLA-A*23:01 = test: as above
HLA-B*15:17 = test: as above
HLA-B*57:01 = test: as above
HLA-A*02:19 = test: as above
HLA-A*26:01 = test: as above
HLA-A*24:03 = test: as above
HLA-A*29:02 = test: as above
HLA-A*02:16 = test: as above
HLA-B*39:01 = test: as above
HLA-B*46:01 = test: as above
HLA-B*18:01 = test: as above
HLA-A*02:12 = test: as above
HLA-A*69:01 = test: as above
HLA-A*68:02 = test: as above
HLA-A*02:11 = test: as above
HLA-C*06:02 = test: IEDB peptide-MHC binding, purified MHC/direct/fluorescence; filed as Kd, often an IC50 or EC50 that approximates it; ≥ and ≤ were set here for values at or beyond the usual limits of such assays; conditions: source organism: Influenza A virus (A/81/HO)
[1] = source organism: Yersinia pestis Nepal516
[2] = source organism: Klebsiella pneumoniae subsp. pneumoniae NTUH-K2044
[3] = source organism: Giardia lamblia ATCC 50803
[4] = source organism: Bacillus anthracis str. A0488
[5] = source organism: Influenza A virus (A/81/HO)

FTIRDVLAY was tested, and the pKd (HLA-A*03:01; [1]) was no more than 4.70, the pKd (HLA-B*58:01) was 8.39 and the pKd (HLA-B*35:01; [1]) was 8.89. The pKd (HLA-A*01:01; [1]) was 8.60.
Work on FTWSGDVRY yielded a pKd (HLA-B*58:01) of 6.39, a pKd (HLA-B*35:01; [1]) of no less than 10.00 and a pKd (HLA-A*01:01; [1]) of 6.88.
KVLSHGWAY gave a pKd (HLA-A*03:01; [2]) of 6.37 and a pKd (HLA-B*35:01; [2]) of 7.57.
NAMGADYYA showed a pKd (HLA-A*02:01; [3]) of no more than 4.70, a pKd (HLA-B*15:01; [3]) of no more than 4.70 and a pKd (HLA-A*02:03; [3]) of no more than 4.70. The pKd (HLA-B*51:01) was no more than 4.70, the pKd (HLA-B*27:03; [3]) was no more than 4.70 and the pKd (HLA-A*23:01; [3]) was no more than 4.70. It also gave a pKd (HLA-B*15:17; [3]) of no more than 4.70, a pKd (HLA-A*03:01; [3]) of no more than 4.70 and a pKd (HLA-B*57:01; [3]) of no more than 4.70. For the same sequence, the pKd (HLA-A*02:19; [3]) was 7.82, the pKd (HLA-A*26:01; [3]) was no more than 4.70 and the pKd (HLA-A*24:03; [3]) was no more than 4.70. The pKd (HLA-A*29:02; [3]) was 6.06, the pKd (HLA-A*02:16; [3]) was no more than 4.70 and the pKd (HLA-B*39:01; [3]) was no more than 4.70. For the same sequence, the pKd (HLA-B*46:01; [3]) was no more than 4.70 and the pKd (HLA-B*18:01; [3]) was no more than 4.70.
SASLAALFY was tested, and the pKd (HLA-B*35:01; [4]) was 9.70 and the pKd (HLA-A*01:01; [4]) was 7.55.
TEDDWITYI showed a pKd (HLA-A*02:01; [3]) of no more than 4.70, a pKd (HLA-B*15:01; [3]) of no more than 4.70 and a pKd (HLA-A*02:03; [3]) of no more than 4.70. For the same sequence, the pKd (HLA-A*02:12; [3]) was no more than 4.70, the pKd (HLA-A*69:01; [3]) was no more than 4.70 and the pKd (HLA-B*51:01) was no more than 4.70. It also gave a pKd (HLA-B*27:03; [3]) of no more than 4.70, a pKd (HLA-A*23:01; [3]) of no more than 4.70 and a pKd (HLA-B*15:17; [3]) of no more than 4.70. The pKd (HLA-A*03:01; [3]) was no more than 4.70, the pKd (HLA-B*57:01; [3]) was no more than 4.70 and the pKd (HLA-A*02:19; [3]) was no more than 4.70. It also gave a pKd (HLA-A*26:01; [3]) of no more than 4.70, a pKd (HLA-A*24:03; [3]) of no more than 4.70 and a pKd (HLA-A*68:02; [3]) of no more than 4.70. The pKd (HLA-A*29:02; [3]) was no more than 4.70, the pKd (HLA-A*02:16; [3]) was 6.40 and the pKd (HLA-B*39:01; [3]) was no more than 4.70. The pKd (HLA-A*02:11; [3]) was no more than 4.70, the pKd (HLA-B*46:01; [3]) was no more than 4.70 and the pKd (HLA-B*18:01; [3]) was no more than 4.70.
VIMWYNYLF was tested, and the pKd (HLA-A*02:01; source organism: Fowlpox virus) was no more than 4.70, the pKd (HLA-B*15:01; source organism: Fowlpox virus) was no more than 4.70 and the pKd (HLA-A*02:03; source organism: Fowlpox virus) was no more than 4.70. It also gave a pKd (HLA-A*02:12; source organism: Fowlpox virus) of no more than 4.70, a pKd (HLA-A*69:01; source organism: Fowlpox virus) of no more than 4.70 and a pKd (HLA-B*27:03; source organism: Fowlpox virus) of no more than 4.70. It also gave a pKd (HLA-A*23:01; source organism: Fowlpox virus) of no more than 4.70, a pKd (HLA-B*15:17; source organism: Fowlpox virus) of no more than 4.70 and a pKd (HLA-A*03:01; source organism: Fowlpox virus) of no more than 4.70. For the same sequence, the pKd (HLA-B*57:01; source organism: Fowlpox virus) was no more than 4.70, the pKd (HLA-A*02:19; source organism: Fowlpox virus) was no more than 4.70 and the pKd (HLA-A*26:01; source organism: Fowlpox virus) was no more than 4.70. The pKd (HLA-A*24:03; source organism: Fowlpox virus) was no more than 4.70, the pKd (HLA-A*68:02; source organism: Fowlpox virus) was no more than 4.70 and the pKd (HLA-A*29:02; source organism: Fowlpox virus) was no more than 4.70. For the same sequence, the pKd (HLA-A*02:16; source organism: Fowlpox virus) was no more than 4.70, the pKd (HLA-B*39:01; source organism: Fowlpox virus) was no more than 4.70 and the pKd (HLA-A*02:11; source organism: Fowlpox virus) was 8.33. For the same sequence, the pKd (HLA-B*46:01; source organism: Fowlpox virus) was no more than 4.70 and the pKd (HLA-B*18:01; source organism: Fowlpox virus) was no more than 4.70.
WMACNSAAF showed a pKd (HLA-C*06:02) of no more than 4.70, a pKd (HLA-B*15:01; [5]) of 7.84 and a pKd (HLA-B*46:01; [5]) of 6.96. It also gave a pKd (HLA-B*35:01; [5]) of 9.70.

— the Immune Epitope Database (IEDB)
